Entries after “also recorded” stand apart in the source; their conditions may differ.
Tests used:
[1] = system: five different valS strains (editing mutants); format: cell-based, E. coli; settings: at 2 mM
Description: (§1) FIG. 1C: Photographs showing the results of growth of a strain carrying the valS:T222P allele in the presence of L-threonine or Abu. Minimal medium plates supplemented with thymidine (0.3 mM) were pretreated with amino acid solutions by streaking either with Thr (50 μl (0.2 M)) or Abu (50 μl (0.1 M)) vertically along the diameter of the plate to create an amino acid gradient. Mutant (β5456) and wild-type (β5419 (thyA::erm+ ΔnrdD::kan+ pTS13 (bla+ thyA: 146GUA)) strains were then streaked horizontally across the plates and incubated for 2 days at 37° C.
(§2) ValRS is known to misactivate Thr and generate Thr-tRNA^Val, which normally is hydrolyzed by the ValRS editing activity (9). If the ValRS mutants in Table 1 are impared for editing, then strains bearing each of these mutations should misincoporate Thr into protein, and L-threonine would then be toxic in these strains. The growth of the five different valS strains was therefore tested in the presence of L-threonine.

[2] = system: parent strain β5419; assay: Growth of parent strain in the presence of L-threonine; format: cell-based, E. coli; settings: all concentrations
Description: as §1, §2

[3] = system: strains bearing thyA:Val146 alleles; assay: Cysteine suppression of thyA:Val146 alleles on gradient plates; format: cell-based, E. coli; settings: gradient starting at 100 mM L-cysteine, no thymidine
Description: […] Ile-Val (0.3 mM) was added in one plate as a control. The dipeptide Ile-Val was purchased from Bachem A G (Bubendorf, Switzerland). Plates were incubated for 2 days at 30° C.
We took advantage of the thyA conditional selection screen in E. coli, based on the absolute requirement for an active thymidylate synthase when thymidine is not provided as a growth factor (13). This same screen was used previously to assess the potency of suppressor Cys-tRNAs in codon misreading (14) and to enforce phenotypic suppression by the non-canonical azaleucine (15). An entire set of plasmid-borne thyA alleles with all 64 different codons at position 146 was constructed for altering the catalytic site occupied by an essential Cys (16, 17). Each allele was tested for its ability to restore growth to an E. coli strain (lacking the chromosomal copy of thyA) on mineral glucose medium in the absence of thymidine (14, 15). Three of the 64 plasmid-borne thyA alleles restored growth. These had one of three codons-UGU, UGC, or UGA. The growth responses of the UGU and UGC alleles were expected, as these code for cysteine.
Shallow growth was reproducibly observed on L-cysteine gradient plates (18) for the missense alleles having any of the eight codons AUN and GUN alone. […]

[4] = system: tRNA^Val; assay: Misacylation of tRNAVal with Thr; format: biochemical, E. coli; settings: pH 7.5, 37° C.
Description: (§3) FIG. 2B: A graph showing misaminoacylation of tRNA^Val with Thr by the T222P mutant enzyme at pH 7.5 and 37° C. The wild-type (WT) and mutant alleles were cloned under the control of a PBAD promoter (30). The enzymes were partially purified from a laboratory strain lacking the chromosomal copy of the valS gene (ΔvalS::kan+). The purification and aminoacylation procedures were adapted from Hendrickson et al. (31). (Main panel) Misaminoacylation of tRNA^Val with Thr by the two enzymes. (Inset) Aminoacylation of tRNA^Val with Val by the two enzymes.
(§4) Aminoaclyation Assay, Misacylation, and Deacylation: Aminoacylation assays were performed at 37 C. in a 100 uL volume containing buffer (20 mM HEPES, 0.1 mM EDTA disodium salt, 0.15M NH4Cl, 10 ug/mL BSA pH 7.5), […] MgCl2, 0.7 μM [^3H]Val, 20 μM cold Val, 2 μM tRNAval (Sigma) and 20 nM ValRS enzyme (adapted from Hendrickson et al. 2000). Aliquots (10 μL) of the reaction mixture were precipitated with tricholoracetic acid, and the level of aminoacylation of the tRNA was determined by scintillation counting.
(§5) Misacylation of Thr onto tRNAval was performed in the same conditions except 5.86 μM [^3H]Thr was substituted forVal in the reaction. To test deacylation rates for these enzymes it was necessary to generate [^3H]Thr-tRNAval. […] Enzyme was incubated with 2.5 μM tRNAval and 45 uM [^3H]Thr, incubated at 37 C. for 45 minutes, extracted twice in phenol:chloroform, and ethanol precipitated. Pellet was dissolved in 100 μL sterile H2O and scintillation counting was used to determine the success of the reaction. Deacylation reactions, done in triplicate for each enzyme, were performed in 155 mM Tris-HCl (pH 7.5), 100 μg/ml BSA, 10 mM MgCl2. At room temperature 2 nM enzyme was combined with [^3H]Thr-tRNAval, at 3, 6, 9, 16, and 30 minutes aliquots (9 μL) of the reaction mixture were precipitated with tricholoracetic acid, and the amount of misaminoacylated [^3H]Thr-tRNAval remaining in the sample was determined by scintillation counting. A no enzyme control reaction was included to provide reference point.

[5] = system: tRNA^Val; assay: Misacylation of tRNAVal with cysteine; format: biochemical, E. coli
Excerpt: The T222P mutant enzyme was, therefore, expressed and partially purified so that it could be directly assayed for the ability to misacylate tRNA^Val.

[6] = system: [^3H]Thr-tRNAval; assay: Deacylation of mischarged Thr-tRNAVal by ValRS enzymes; format: biochemical, E. coli; settings: 2 nM enzyme, room temperature
Description: FIG. 5B: Histogram representation of the inhibition zone diameters of DvalS::kanR strains harboring each of the ValRS editing mutants on plasmid in response to exogenous Abu. Effects range from mild to severe. Histogram representation of the percentage of mischarged Thr-tRNAVal remaining after incubation with 2 nM enzyme for 15 minutes at room temperature. Both show a distinct range in the severity of editing defects caused by these point mutations. Taken together this illustrates a correlation between the ability of the mutant enzyme to deacylate mischarged amino acids from tRNAVal in vitro and the degree of in vivo toxicity.
as §5

[7] = system: tRNA^Val; assay: Aminoacylation of tRNAVal with Val; format: biochemical, E. coli; settings: pH 7.5, 37° C.
Description: as §3, §4

## C[C@@H](O)[C@H](N)C(=O)O [L-threonine]
[1]
  sensitivity of growth to exogenous L-threonine: high sensitivity
[2]
  sensitivity of growth to exogenous L-threonine: insensitive

## N[C@@H](CS)C(=O)O [L-cysteine]
[3]
  suppression of thyA:Val146 alleles: weak

B1: T222P (protein, UniProt P07118 1-951, looked up, variant T222P)
Valine--tRNA ligase: MEKTYNPQDIEQPLYEHWEKQGYFKPNGDESQESFCIMIPPPNVTGSLHMGHAFQQTIMDTMIRYQRMQGKNTLWQVGTDHAGIATQMVVERKIAAEEGKTRHDYGREAFIDKIWEWKAESGGTITRQMRRLGNSVDWERERFTMDEGLSNAVKEVFVRLYKEDLIYRGKRLVNWDPKLRTAISDLEVENRESKGSMWHIRYPLADGAKTADGKDYLVVATPRPETLLGDTGVAVNPEDPRYKDLIGKYVILPLVNRRIPIVGDEHADMEKGTGCVKITPAHDFNDYEVGKRHALPMINILTFDGDIRESAQVFDTKGNESDVYSSEIPAEFQKLERFAARKAVVAAVDALGLLEEIKPHDLTVPYGDRGGVVIEPMLTDQWYVRADVLAKPAVEAVENGDIQFVPKQYENMYFSWMRDIQDWCISRQLWWGHRIPAWYDEAGNVYVGRNEDEVRKENNLGADVVLRQDEDVLDTWFSSALWTFSTLGWPENTDALRQFHPTSVMVSGFDIIFFWIARMIMMTMHFIKDENGKPQVPFHTVYMTGLIRDDEGQKMSKSKGNVIDPLDMVDGISLPELLEKRTGNMMQPQLADKIRKRTEKQFPNGIEPHGTDALRFTLAALASTGRDINWDMKRLEGYRNFCNKLWNASRFVLMNTEGQDCGFNGGEMTLSLADRWILAEFNQTIKAYREALDSFRFDIAAGILYEFTWNQFCDWYLELTKPVMNGGTEAELRGTRHTLVTVLEGLLRLAHPIIPFITETIWQRVKVLCGITADTIMLQPFPQYDASQVDEAALADTEWLKQAIVAVRNIRAEMNIAPGKPLELLLRGCSADAERRVNENRGFLQTLARLESITVLPADDKGPVSVTKIIDGAELLIPMAGLINKEDELARLAKEVAKIEGEISRIENKLANEGFVARAPEAVIAKEREKLEGYAEAKAKLIEQQAVIAAL
[4]
  misacylation of tRNA^Val with Thr: high levels of mischarged Thr-tRNA^Val; also recorded: misacylated tRNA^Val with Thr
[5]
  misacylation of tRNA^Val with cysteine: catalyzed only by the mutant enzyme
[6]
  deacylation of Thr-tRNA^Val in vitro: most severe defects
[7]
  activity for charging tRNA^Val with valine: same activity as the wild-type enzyme

Reference: patent publication US7524646B2 (priority 2001, dated 2009)
